The source of these data is US20210057047A1, “IN-SILICO METHOD FOR DESIGNING A (D)-POLYPEPTIDE LIGAND” (THE GOVERNING COUNCIL OF THE UNIVERSITY OF TORONTO, priority 2018, published 2021).

The target of one series is T1, Proteinase K (ProtK) (Parengyodontium album, UniProt P06873).
T1 construct: purchased Bioshop
As to the kind of experiment: in vitro. The series is classed as in vitro ADME. How it is done: Stocks of 20 μM peptide in 200 μL total volume (10 mM Tris-base, 10 mM NaCl, pH 7.4) were supplemented with 5 μM CaCl2) and 30 uL removed for the untreated T0 sample. Proteinase K (ProtK, Bioshop) was then added to a final concentration of 100 μg/mL. Samples were incubated at 37° C. and 30 μL removed after each time point and protease activity blocked by the addition of 10 mM PMSF (200 mM stock dissolved in isopropanol). Protease inactivated samples were frozen at −20° C. until further use. Digestions were repeated three times. Frozen samples were supplemented with 8 μL sample loading buffer (4× NuPAGE, ThermoFisher Scientific), boiled ([…]) for 10 minutes, and centrifuged (12 000 rpm, 10 min) prior to loading the gel (12% NuPAGE Bis-Tris (ThermoFisher Scientific) with MES running buffer). Gels were run at 200 V for […] and stained using Coomassie Brilliant Blue dye. Densitometry of bands was determined using ImageJ software (40) with back ground subtraction. All samples were normalized to their respective untreated sample (T0).

Series [1] has as its target T2, parathyroid receptor (PTH1R) (Homo sapiens, UniProt Q03431).
T2 construct: expressed in transfected cells; host or cells: HEK293
T2 sequence (Q03431 27-593): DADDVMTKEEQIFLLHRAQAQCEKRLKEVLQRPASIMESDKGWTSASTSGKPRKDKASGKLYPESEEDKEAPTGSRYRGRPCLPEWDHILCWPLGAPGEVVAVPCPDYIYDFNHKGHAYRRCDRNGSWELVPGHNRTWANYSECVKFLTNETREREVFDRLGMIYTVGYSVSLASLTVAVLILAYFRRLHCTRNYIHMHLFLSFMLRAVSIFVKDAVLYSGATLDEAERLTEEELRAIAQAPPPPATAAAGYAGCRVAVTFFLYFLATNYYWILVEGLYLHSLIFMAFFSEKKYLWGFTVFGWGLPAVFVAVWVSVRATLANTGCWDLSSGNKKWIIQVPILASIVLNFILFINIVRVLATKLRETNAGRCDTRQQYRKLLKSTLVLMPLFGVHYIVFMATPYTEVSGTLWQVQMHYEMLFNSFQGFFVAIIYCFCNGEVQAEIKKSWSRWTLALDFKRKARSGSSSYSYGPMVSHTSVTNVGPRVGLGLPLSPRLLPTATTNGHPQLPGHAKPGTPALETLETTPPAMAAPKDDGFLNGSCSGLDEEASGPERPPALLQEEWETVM
As to the kind of experiment: CRE-luciferase reporter assay in HEK293 cells stably expressing PTH1R. The series is classed as cell-based. How it is done: This activates protein kinase A (PKA) to phosphorylate and activate cAMP response element-binding protein (CREB). […] All of the (L)-PTH is degraded in under 1 hr, while more than 85% of the (D)-analog is still detectable at 6 hours.
(a) (L)-PTH structure and sequence with hotspots highlighted in grey and junctions in black. (b) (D)-PDB match structures and sequences. (c) Final (D)-PTH construction from match sequences and RI (d) HEK293 cells stably expressing PTH1R and CRE-luciferase were stimulated with different concentrations of (L)-, (D)-PTH peptides and Forskolin. Luciferase activity was measured. The experiments were performed in triplicate. (e) Sample gel images of (L)- and (D)-PTH peptides treated with Proteinase K (ProtK) over 5 hours. Gels were stained with Coomassie Brilliant Blue dye and band densitometry calculated using ImageJ (40) with background subtraction. (f) Quantification of remaining peptide post ProtK treatment in […] intervals. Intensity of peptide bands were normalized to the intensity of the untreated peptide (T0) and converted to a percentage relative to T0. […] Error bars are reporting standard error. Data represent the average of 3 independent experiments.

In another series the test system is pCDNA3.1 HEK293 cells. As to the kind of experiment: CRE-luciferase reporter assay in control pCDNA3.1 HEK293 cells. Format: cell-based. To be noted: pCDNA3.1 HEK293 cells without GLP1 receptor. (In general: Reporter assays use an easily measured gene product as a stand-in for the process of interest.)
The conditions of series [2]: FDA approved peptide drugs, Table 1; cited from earlier work.
The next series addresses GLP1 receptor (GLP1R) (human, UniProt P43220 24-463). As to the kind of experiment: cell-based or functional assay.

A word on the t½: it is the time needed for the level to fall by half in the phase considered.

Like-named read-outs stand apart in the source and are kept apart here. Square brackets hold non-standard residues; d marks the D form. Ends that are not written are not given here. Peptide text beside a SMILES is read from it.

T1 sequence (P06873 106-384): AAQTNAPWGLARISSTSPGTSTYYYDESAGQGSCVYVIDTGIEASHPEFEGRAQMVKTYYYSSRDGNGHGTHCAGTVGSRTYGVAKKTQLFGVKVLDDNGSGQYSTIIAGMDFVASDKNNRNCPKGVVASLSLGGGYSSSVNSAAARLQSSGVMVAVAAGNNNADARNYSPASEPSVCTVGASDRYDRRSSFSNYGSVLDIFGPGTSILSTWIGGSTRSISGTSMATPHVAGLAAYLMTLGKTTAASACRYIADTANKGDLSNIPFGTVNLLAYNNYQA

For `CC[C@@H](C)[C@@H](NC(=O)[C@@H](C)NC(=O)[C@@H](CCC(=O)O)NC(=O)[C@H](NC(=O)[C@@H](CC(C)C)NC(=O)[C@@H](CCC(=O)O)NC(=O)CNC(=O)[C@@H](C)NC(=O)[C@@H](C)NC(=O)[C@@H](CC(C)C)NC(=O)[C@H](NC(=O)[C@@H](Cc1ccccc1)NC(=O)[C@@H](CC(C)C)NC(=O)[C@@H](CCC(=O)O)NC(=O)[C@@H](CC(C)C)NC(=O)[C@@H](Cc1ccccc1)NC(=O)[C@@H](C)NC(=O)[C@@H](CCCCN)NC(=O)CNC(=O)[C@H](N)CCCNC(=N)N)[C@H](C)CC)[C@H](C)CC)C(=O)N[C@H](CC(=O)O)C(=O)N[C@H](CCCNC(=N)N)C(=O)N[C@@H](C(=O)N[C@H](Cc1ccccc1)C(=O)N[C@@H](C(=O)NCC(=O)N[C@H](CCC(=O)O)C(=O)N[C@H](C)C(=O)N[C@H](Cc1c[nH]cn1)C(=O)O)[C@H](C)O)[C@H](C)O` [(D)-GLP1] (H-[dR]G[dK][dA][dF][dL][dE][dL][dF][dI][dL][dA][dA]G[dE][dL][dI][dE][dA][dI][dD][dR][dT][dF][dT]G[dE][dA][dH]-OH; N-terminus and C-terminus assumed), the “degradation by ProtK (in words)” value on Proteinase K (ProtK) is given as “persists after 5 hours”.

Turning to `CC[C@@H](C)[C@@H](NC(=O)[C@@H](CCC(=O)O)NC(=O)[C@@H](CCCNC(=N)N)NC(=O)[C@@H](CCSC)NC(=O)[C@@H](CC(C)C)NC(=O)[C@@H](CC(=O)O)NC(=O)CNC(=O)[C@@H](CCCCN)NC(=O)[C@@H](Cc1c[nH]cn1)NC(=O)[C@@H](CC(N)=O)NC(=O)[C@@H](CCCNC(=N)N)NC(=O)[C@@H](Cc1c[nH]c2ccccc12)NC(=O)[C@@H](CCC(=O)O)NC(=O)[C@H]1CCCN1C(=O)[C@@H](CC(C)C)NC(=O)[C@@H](Cc1ccc(O)cc1)NC(=O)[C@@H](CCSC)NC(=O)[C@@H](CC(C)C)NC(=O)[C@@H](CC(C)C)NC(=O)[C@@H](CCSC)NC(=O)CNC(=O)[C@H](NC(=O)[C@@H](CO)NC(=O)[C@@H](CC(=O)O)NC(=O)[C@@H](C)NC(=O)[C@H](NC(=O)[C@@H](C)NC(=O)[C@@H](CC(C)C)NC(=O)CNC(=O)[C@@H](C)N)C(C)C)C(C)C)C(=O)N[C@H](CCCNC(=N)N)C(=O)N[C@H](CO)C(=O)N[C@H](CCCNC(=N)N)C(=O)N[C@H](CCCCN)C(=O)N[C@@H](C(=O)N[C@H](CO)C(=O)O)C(C)C` [(D)-PTH] (H-[dA]G[dL][dA][dV][dA][dD][dS][dV]G[dM][dL][dL][dM][dY][dL][dP][dE][dW][dR][dN][dH][dK]G[dD][dL][dM][dR][dE][dI][dR][dS][dR][dK][dV][dS]-OH; N-terminus and C-terminus assumed), the “activation of PTH1R, potency and efficacy (in words)” value in series [1] was “potency and efficacy comparable to (L)-PTH and Forskolin”. For the same molecule, the “degradation by ProtK (in words)” value on Proteinase K (ProtK) is reported as “persists after 5 hours”.

As for `CC[C@H](C)[C@H](NC(=O)[C@H](Cc1ccccc1)NC(=O)[C@H](CCC(=O)O)NC(=O)[C@H](CCCCN)NC(=O)[C@H](C)NC(=O)[C@H](C)NC(=O)[C@H](CCC(N)=O)NC(=O)CNC(=O)[C@H](CCC(=O)O)NC(=O)[C@H](CC(C)C)NC(=O)[C@H](Cc1ccc(O)cc1)NC(=O)[C@H](CO)NC(=O)[C@H](CO)NC(=O)[C@@H](NC(=O)[C@H](CC(=O)O)NC(=O)[C@H](CO)NC(=O)[C@@H](NC(=O)[C@H](Cc1ccccc1)NC(=O)[C@@H](NC(=O)CNC(=O)[C@H](CCC(=O)O)NC(=O)[C@H](C)NC(=O)[C@@H](N)Cc1c[nH]cn1)[C@@H](C)O)[C@@H](C)O)C(C)C)C(=O)N[C@@H](C)C(=O)N[C@@H](Cc1c[nH]c2ccccc12)C(=O)N[C@@H](CC(C)C)C(=O)N[C@H](C(=O)N[C@@H](CCCCN)C(=O)NCC(=O)N[C@@H](CCCNC(=N)N)C(=O)O)C(C)C` [(L)-GLP1], the “luciferase expression (in words)” value in the series on pCDNA3.1 HEK293 cells is “inactive”.

For the molecule `CC(C)C[C@H](NC(=O)[C@H](CCCCN)NC(=O)CNC(=O)[C@H](CC(C)C)NC(=O)[C@@H](NC(=O)[C@@H]1CSSC[C@H](N)C(=O)N[C@@H](CO)C(=O)N[C@@H](CC(N)=O)C(=O)N[C@@H](CC(C)C)C(=O)N[C@@H](CO)C(=O)N[C@@H]([C@@H](C)O)C(=O)N1)C(C)C)C(=O)N[C@@H](CO)C(=O)N[C@@H](CCC(N)=O)C(=O)N[C@@H](CCC(=O)O)C(=O)N[C@@H](CC(C)C)C(=O)N[C@@H](Cc1c[nH]cn1)C(=O)N[C@@H](CCCCN)C(=O)N[C@@H](CC(C)C)C(=O)N[C@@H](CCC(N)=O)C(=O)N[C@H](C(=O)N[C@@H](Cc1ccc(O)cc1)C(=O)N1CCC[C@H]1C(=O)N[C@@H](CCCNC(=N)N)C(=O)N[C@H](C(=O)N[C@@H](CC(N)=O)C(=O)N[C@H](C(=O)NCC(=O)N[C@@H](CO)C(=O)NCC(=O)N[C@H](C(=O)N1CCC[C@H]1C(N)=O)[C@@H](C)O)[C@@H](C)O)[C@@H](C)O)[C@@H](C)O` [Calcitonin], the t½ in series [2] is 0.967 h.

Consider `CC[C@H](C)[C@H](NC(=O)[C@H](Cc1ccccc1)NC(=O)[C@H](CC(=O)O)NC(=O)[C@H](CCCNC(=N)N)NC(=O)[C@H](C)NC(=O)[C@H](C)NC(=O)[C@H](CC(C)C)NC(=O)[C@H](CC(N)=O)NC(=O)[C@H](CC(=O)O)NC(=O)[C@H](CC(C)C)NC(=O)[C@@H](NC(=O)[C@@H](NC(=O)[C@H](CC(N)=O)NC(=O)[C@H](CCSC)NC(=O)[C@H](CCC(=O)O)NC(=O)[C@H](CC(=O)O)NC(=O)[C@H](CO)NC(=O)[C@H](Cc1ccccc1)NC(=O)[C@H](CO)NC(=O)CNC(=O)[C@H](CC(=O)O)NC(=O)CNC(=O)[C@@H](N)Cc1c[nH]cn1)[C@@H](C)O)[C@@H](C)CC)C(=O)N[C@@H](CC(N)=O)C(=O)N[C@@H](Cc1c[nH]c2ccccc12)C(=O)N[C@@H](CC(C)C)C(=O)N[C@H](C(=O)N[C@@H](CCC(N)=O)C(=O)N[C@H](C(=O)N[C@@H](CCCCN)C(=O)N[C@H](C(=O)N[C@H](C(=O)N[C@@H](CC(=O)O)C(=O)O)[C@@H](C)O)[C@@H](C)CC)[C@@H](C)O)[C@@H](C)CC` [Teduglutide], for which the t½ in series [2] was 1.33 h.

As to “(L)-GLP-2: native GLP-2, gastrointestinal peptide”, the “time until all peptide is degraded” value in the series with Proteinase K (ProtK) (exposure to ProtK, 37° C.) is reported as “about 1 hr”. Also, the “degradation by ProtK (in words)” value with Proteinase K (ProtK) (treatment with ProtK over 5 hours) is on record as “rapid degradation”.

For “(L)-PTH: native parathyroid hormone, residues 1-34”, in the series with Proteinase K (ProtK), the “degradation by ProtK (in words)” value is given as “rapid degradation” and the “time until all peptide is degraded” value is reported as “under 1 hr”.

As for Glucagon, the t½ in series [2] is 0.25 h.

Regarding Parathyroid Hormone, the t½ in series [2] is 3 h.

In the case of Sermorelin, the t½ in series [2] was 0.2 h.

With “Thymosin (Ac-SDAAVDTSSEITTKDLKEKKEVVEEAEN; UniProt P06454 2-29, looked up) [FDA approved peptide drug, hepatitis, cancer]”, in series [2], the t½ is 2 h.

For [dR]G[dK][dA][dF][dL][dE][dL][dF][dI][dL][dA][dA]G[dE][dL][dI][dE][dA][dI][dD][dR][dT][dF][dT]G[dE][dA][dH] (designed binder) [(D)-GLP1 peptide], in the series with GLP1 receptor (GLP1R), the “EC50, CRE-luciferase expression” value came out at 2200 nM and the “potency relative to the native peptide” value is roughly 40 fold lower.
